Experimental data taken from paper PMC3148250, “Structural Basis for Sequence Specific DNA Binding and Protein Dimerization of HOXA13”.

Key:
A13DBD WT [1] = target: T1, A13DBD WT (mouse (murine), UniProt Q62424 320-386); assay: fluorescence anisotropy; 10 mM MgCl2; FA: 20 mM Tris pH 7.5, 80 mM KCl, 10 mM MgCl2, 0.2 mM EDTA, 1 mM DTT, 15 C, 1 nM DNA; NMR complex: 20 mM NaPO4 pH 6.0, 5 mM MgCl2, 10% D2O, 310 K; ITC buffer not given in the material; details: protein: recombinant; tags: His-tag removed by thrombin; label: 5' 6-FAM via hexyl linker; hairpin (self-annealing)
A13DBD V373G [2] = target: T2, A13DBD V373G (mouse (murine), UniProt Q62424 320-386, V373G); assay: as above; details: protein: recombinant; tags: His-tag removed by thrombin; label: 5' 6-FAM via hexyl linker; hairpin (self-annealing)
A13DBD WT [3] = target: T1, A13DBD WT; assay: ITC; FA: 20 mM Tris pH 7.5, 80 mM KCl, 10 mM MgCl2, 0.2 mM EDTA, 1 mM DTT, 15 C, 1 nM DNA; NMR complex: 20 mM NaPO4 pH 6.0, 5 mM MgCl2, 10% D2O, 310 K; ITC buffer not given in the material; details: protein: recombinant, tags: His-tag removed by thrombin
A13DBD V373G [4] = target: T2, A13DBD V373G; assay: as above; details: protein: recombinant; tags: His-tag removed by thrombin; C5-A5* mismatch with strand 2 as printed
A13DBD WT [5] = target: T1, A13DBD WT; assay: fluorescence anisotropy; 10 mM MgCl2; text fold changes suggest T6*C and T6*U swapped; FA: 20 mM Tris pH 7.5, 80 mM KCl, 10 mM MgCl2, 0.2 mM EDTA, 1 mM DTT, 15 C, 1 nM DNA; NMR complex: 20 mM NaPO4 pH 6.0, 5 mM MgCl2, 10% D2O, 310 K; ITC buffer not given in the material; details: protein: recombinant; tags: His-tag removed by thrombin; label: 5' 6-FAM via hexyl linker; hairpin (self-annealing)
A13DBD I366A = A13DBD I366A (mouse (murine), UniProt Q62424 320-386, I366A); assay: ITC; FA: 20 mM Tris pH 7.5, 80 mM KCl, 10 mM MgCl2, 0.2 mM EDTA, 1 mM DTT, 15 C, 1 nM DNA; NMR complex: 20 mM NaPO4 pH 6.0, 5 mM MgCl2, 10% D2O, 310 K; ITC buffer not given in the material; details: protein: recombinant; tags: His-tag removed by thrombin; blunt
A13DBD V373A = A13DBD V373A (mouse (murine), UniProt Q62424 320-386, V373A); assay: as above; details: protein: recombinant; tags: His-tag removed by thrombin; blunt
A13DBD F344A = A13DBD F344A (mouse (murine), UniProt Q62424 320-386, F344A); assay: ITC; does not affect DNA binding; FA: 20 mM Tris pH 7.5, 80 mM KCl, 10 mM MgCl2, 0.2 mM EDTA, 1 mM DTT, 15 C, 1 nM DNA; NMR complex: 20 mM NaPO4 pH 6.0, 5 mM MgCl2, 10% D2O, 310 K; ITC buffer not given in the material; details: protein: recombinant; tags: His-tag removed by thrombin; blunt
A13DBD N370A = A13DBD N370A (mouse (murine), UniProt Q62424 320-386, N370A); assay: ITC; text says ~1000-fold lower affinity; FA: 20 mM Tris pH 7.5, 80 mM KCl, 10 mM MgCl2, 0.2 mM EDTA, 1 mM DTT, 15 C, 1 nM DNA; NMR complex: 20 mM NaPO4 pH 6.0, 5 mM MgCl2, 10% D2O, 310 K; ITC buffer not given in the material; details: protein: recombinant; tags: His-tag removed by thrombin; blunt
A13DBD V373G [6] = target: T2, A13DBD V373G; assay: ITC; text says 3-4-fold lower affinity; FA: 20 mM Tris pH 7.5, 80 mM KCl, 10 mM MgCl2, 0.2 mM EDTA, 1 mM DTT, 15 C, 1 nM DNA; NMR complex: 20 mM NaPO4 pH 6.0, 5 mM MgCl2, 10% D2O, 310 K; ITC buffer not given in the material; details: protein: recombinant; tags: His-tag removed by thrombin; blunt
A13DBD V373G [7] = target: T2, A13DBD V373G; assay: competition; 50 nM already competes with consensus; 4 uM protein; FA: 20 mM Tris pH 7.5, 80 mM KCl, 10 mM MgCl2, 0.2 mM EDTA, 1 mM DTT, 15 C, 1 nM DNA; NMR complex: 20 mM NaPO4 pH 6.0, 5 mM MgCl2, 10% D2O, 310 K; ITC buffer not given in the material; details: protein: recombinant; tags: His-tag removed by thrombin; hairpin (self-annealing)

T1 sequence (Q62424 320-386): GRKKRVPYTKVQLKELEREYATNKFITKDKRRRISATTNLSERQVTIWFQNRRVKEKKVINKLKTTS
T2 sequence (Q62424 320-386 V373G): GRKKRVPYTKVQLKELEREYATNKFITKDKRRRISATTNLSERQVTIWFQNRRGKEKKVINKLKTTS
A13DBD F344A, sequence (Q62424 320-386 F344A): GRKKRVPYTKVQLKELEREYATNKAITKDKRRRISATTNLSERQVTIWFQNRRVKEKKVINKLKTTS
A13DBD N370A, sequence (Q62424 320-386 N370A): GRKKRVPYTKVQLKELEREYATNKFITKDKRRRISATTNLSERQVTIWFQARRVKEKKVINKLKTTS
A13DBD V373A, sequence (Q62424 320-386 V373A): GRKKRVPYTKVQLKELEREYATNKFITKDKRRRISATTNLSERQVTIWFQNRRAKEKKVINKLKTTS
A13DBD I366A, sequence (Q62424 320-386 I366A): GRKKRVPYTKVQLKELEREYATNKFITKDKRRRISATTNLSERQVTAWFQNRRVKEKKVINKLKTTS

Binder: CAAACAAAATCCCCCATTTTGTTTG (structured_DNA) [FA T5C]
- Kd (A13DBD WT [1]): 49.2 ± 4.97 nM
- Kd (A13DBD V373G [2]): 616 ± 56.1 nM

B1: 11-mer T5C (dsDNA)
DNA 1: CAAACAAAATC
DNA 2: GATTTTATTTG
- Kd (A13DBD WT [3]; C5-A5* mismatch with strand 2 as printed): 286 nM
- Kd (A13DBD V373G [4]): 617 nM

Binder: CAAATGAAATCCCCCATTTCATTG (structured_DNA) [FA T6*C]
- Kd (A13DBD V373G [2]): 79.3 ± 6.93 nM
- Kd (A13DBD WT [5]): 5.95 ± 0.64 nM

Binder: CAAAUAAATCCCCCATTTTATTGTG (structured_DNA, deoxyuridine at position 5) [FA T5U]
- Kd (A13DBD WT [1]): 4.01 ± 0.28 nM

B2: 11-mer duplex WT (dsDNA)
DNA 1: CAAATAAAATC
DNA 2: GATTTTATTTG
- Kd (A13DBD WT [3]; blunt): 7.5 nM
- Kd (A13DBD I366A): 43.7 nM
- Kd (A13DBD V373A): 18.7 nM
- binding result (A13DBD F344A): binds
- Kd (A13DBD N370A): 862 nM
- Kd (A13DBD V373G [6]): 137 nM

Binder: TGACTGACTGACTGCCCCCCAGTCAG (structured_DNA) [Scrambled]
- binding result (A13DBD V373G [7]): binds

Binder: CAAATAAAATCCCCCATTTTATTTG (structured_DNA) [FA consensus (wt)]
- Kd (A13DBD WT [1]): 2.19 ± 0.06 nM
- Kd (A13DBD V373G [2]): 56.6 ± 2.25 nM

B3: 11-mer T5U (dsDNA)
DNA 1: CAAAUAAAATC
DNA 2: GATTTTATTTG
modifications: deoxyuridine at T5 (DNA strand)
- Kd (A13DBD WT [3]; blunt): 14.5 nM
